Laboratory results as given in patent publication US20200087383A1 (NATIONAL CHENG KUNG UNIVERSITY, published 2020).

Legend:
[1] = molecular target: T1, antigen comprising the amino acid sequence YKDWSEWGKAC (SEQ ID NO: 12); assay: ELISA of hybridoma supernatants on the antigen comprising SEQ ID NO: 12
T1 construct: Any carrier or conjugate is not described; also called screening antigen
T1 peptide: YKDWSEWGKAC

[2] = molecular target: bovine serum albumin (BSA) (bovine, UniProt P02769 25-607); assay: western blotting
bovine serum albumin (BSA), sequence (P02769 25-607 limits assumed): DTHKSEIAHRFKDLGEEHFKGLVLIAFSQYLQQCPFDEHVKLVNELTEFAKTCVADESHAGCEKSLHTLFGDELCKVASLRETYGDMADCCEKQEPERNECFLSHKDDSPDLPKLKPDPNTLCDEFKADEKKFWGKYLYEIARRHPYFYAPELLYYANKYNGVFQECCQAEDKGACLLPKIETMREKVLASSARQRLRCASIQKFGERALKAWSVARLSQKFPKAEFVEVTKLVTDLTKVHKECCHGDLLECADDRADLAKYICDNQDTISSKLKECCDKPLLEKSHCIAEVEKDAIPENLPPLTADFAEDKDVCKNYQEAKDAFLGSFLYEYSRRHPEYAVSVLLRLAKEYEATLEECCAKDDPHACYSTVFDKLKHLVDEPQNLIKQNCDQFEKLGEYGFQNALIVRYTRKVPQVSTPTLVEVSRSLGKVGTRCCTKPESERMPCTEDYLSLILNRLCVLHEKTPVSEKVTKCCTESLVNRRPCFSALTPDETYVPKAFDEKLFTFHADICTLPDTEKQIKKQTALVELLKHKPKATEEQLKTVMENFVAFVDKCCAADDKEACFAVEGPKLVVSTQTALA

B1: anti-DENV NS1 monoclonal antibody mAb 33D2 (antibody, V domains shown)
VH: DVQLQESGPGLVKPSQSLSLTCTVTGYSITSDYAWNWIRQFPGNKLEWMGFISYSGSARYNPSLISRTSITRDTSKNQFFLHLNSVTTEDTAIYYCARVERLGYFDVWGAGTTVTVSS
VL: DIVLTQSPASLAVSLGQRASISCKASQSVDYDGDSYMHWYQQKPGQPFKLLIYAASNLESGIPARFSGSGSGTVFTLNIHPVEEEDAATYYCQQSNEDPTFGGGTRLEIKR
notes: also called anti-NS1 mAb 33D2; anti-DENV antibody 33D2
B1: binds [1]; no binding [2].
